Data: the supplement of paper PMC9170038

Test system: MS2 coat protein
Experiment: apparent KD of MS2 coat protein; designed switch direction (-1 OFF switch, 1 ON switch): -1; higher = weaker reporter binding
Method in brief: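 Designed RNA switches with common flanks were made on Illumina chips by stalled E. coli RNA polymerase. Titration with SNAP-549-labelled MS2 coat protein doubled from 0.7 or 1.5 nM up to 3 µM. Apparent KD is each design's median over clusters after curve-fitting normalised fluorescence.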

[1] = input ligand: microRNA oligo, concentration not stated
[2] = Eterna round: R95, input ligand: microRNA oligo, concentration not stated
[3] = Eterna round: R95, input ligand: FMN 200 uM
[4] = Eterna round: R95, input ligand: none

Sequence | apparent KD of MS2 coat protein (input ligand: FMN 200 uM) | apparent KD of MS2 coat protein (input ligand: none) | apparent KD of MS2 coat protein [1] | apparent KD of MS2 coat protein [2] | apparent KD of MS2 coat protein [3] | apparent KD of MS2 coat protein [4]
UAUUUAGCAAGUAGAUCCUACAUGAGGAUCACCCAUGUGCUCUGAAAUAACGCAGAAUUACUGCGAGCUCGUCUUAU [Winner reversed engineered 28] (Eterna round: R97, puzzle: Sensor, turn-off variant 1) | 1080 nM | 1560 nM | – | – | – | –
UUUGUAUAUGAAGGAUAUACUUAACAUGAGGAUCACCCAUGUGGUGUUGUGAGUGAGUGAGUUUAGUAGAAGGUCAAUGAUUUU [JMF's solution 71] (Eterna round: R96, puzzle: Exclusion NG 2) | 531 nM | 317 nM | 218 nM | – | – | –
CGCUGGACAGGAUAUGUUUUUGGGCACUUGAGGAUCACCCAAGUCAUCAAGAAAACAGGCACAGAAGGGUUUAUGG [salish99_ex5_r4_022(!)] (Eterna round: R97, puzzle: Exclusion 5) | 28 nM | 25.1 nM | – | – | – | –
GUGUACAGAGGAUAUACUCGAAUCUAGCGAAGCUAGGUUUGACAUGAGGAUCACCCAUGUAGAAGGCUGUACAC [Dot plot directed A] (puzzle: Exclusion 2) | – | – | – | 13.8 nM | – | –
AUGAGGGUAAGAAGGUGAAGAUAGAGCGUACCUUAUGGAACAUGAGGAUCACCCAUGUAGCUUUUUGCUCGUCUUAU [JR_SV3TOV2_Sub032] (puzzle: Sensor v3, turn-off variant 2) | – | – | – | 84 nM | 36.1 nM | 35.6 nM
GCGCACUAAGUGAGGAUAUCGAUUUCUUUAAGGAUCGAGAAGGCACAUGAGGAUCACCCAUGUUUGACGUGCGC [JR_BMOE4_Sub097] (puzzle: Brourd's mod of Exclusion 4) | – | – | – | 15.5 nM | – | –
AUAAGCUUUGAGAUCCUUAACAUGAGGAUCACCCAUGUUCGUCUUAUGAUGGUCUGAUCCCUGAGGAUCGGACCGUU [JL-sv1-2.02 Brourd Mod] (puzzle: Sensor v3, turn-off variant 1) | – | – | – | 10.4 nM | 262 nM | 257 nM
AUUUAUGGAGGAUAUACUUGAGGAUCACCCAAGUGGAGUCCCAAAUGGGCGGUAAAUAGUAGAAGGCCGUCUUA [jl-ex3-4.49 ViennaUCT mod] (Eterna round: R97, puzzle: Exclusion 3) | 17.2 nM | 16.5 nM | – | – | – | –
GCACUGGCAGGAUAUACAUGAGGAUCACCCAUGUGAUCCCUUAAGUACAAAAGUACUAGUAGAAGGGCCUGUGC [Omei Ex3 Model Bachelor's Dilema v46] (Eterna round: R97, puzzle: Exclusion 3) | 307 nM | 785 nM | – | – | – | –
UUAAUACAUGUAGGAUAUGCGUGGCGAAGCUAUGCAGAAGGACAUGAGGAUCACCCAUGUUCUAGCGUCCGCGUACGGAUGCAA [JL Eng1 1.21 mod 9] (Eterna round: R96, puzzle: Exclusion NG 1) | 16.4 nM | 14.8 nM | 12 nM | – | – | –
GAAAACGUAGGAUAUUAAUACUUAGACAUGAGGAUCACCCAUGUUUGGUGGGUCGGAGAAUGAGAAGGGCGAUGAA [EX5 #13] (Eterna round: R97, puzzle: Exclusion 5) | 107 nM | 153 nM | – | – | – | –
UUUAAUCGUGACAUGGGUGACAUGAGGAUCACCCAUGUCACAAGCUUCUCGCUCGUCUUAUAAUUAACCCAUGUCAC [LRO Sensor-off var1-13 mod of Stov1-13-A1 by Brourd] (Eterna round: R97, puzzle: Sensor, turn-off variant 1) | 17.3 nM | 18.7 nM | – | – | – | –
GUUUUAUAUGAAGGAUAUACUUAACAUGAGGAUCACCCAUGUGGUGUUGUGAGUGAGUGAGUUUAGUAGAAGGUCAAGUAUUUU [JMF's solution 56] (Eterna round: R96, puzzle: Exclusion NG 2) | 335 nM | 319 nM | 231 nM | – | – | –
CUUUUGUGAGGAUAUCAGUAGUAAAUUAAUAAAAUUACUACUGAGAAGGCACAUGAGGAUCACCCAUGUUCCUU [Mat - Exclusion 4 - Mod of Salish - D64] (puzzle: Exclusion 4) | – | – | – | 14.9 nM | – | –
UUGUUGUAUGUAGGAUAUGCAUGUUAUUAUUAUGCAGAAGGACAUGAGGAUCACCCAUGUAUAUUAUUAUUAUAUGUUAUAUAU [Title] (Eterna round: R96, puzzle: Exclusion NG 1) | 22.2 nM | 23.9 nM | 17.9 nM | – | – | –
UAAUACAUCUAUGGGAGUAACAUGAGGAUCACCCAUGUAUGUCUUGUUUUUUGUUCGUCAAAGACUUUCUGAUCAGU [JR_SV3TOV1_Sub030] (puzzle: Sensor v3, turn-off variant 1) | – | – | – | 191 nM | 76.7 nM | 83.2 nM
CUUUCGUGAGGAUAUGUGGCUUCGAAAAUGAGAUCGAGGCUACAGAAGGCACAUGAGGAUCACCCAUGUUCCUC [salish99_ex4_r4_215] (Eterna round: R97, puzzle: Exclusion 4) | 400 nM | 35.6 nM | – | – | – | –

Sequence | apparent KD of MS2 coat protein (input ligand: FMN 200 uM) | apparent KD of MS2 coat protein (input ligand: none) | apparent KD of MS2 coat protein [1] | apparent KD of MS2 coat protein [2] | apparent KD of MS2 coat protein [3] | apparent KD of MS2 coat protein [4]
GUAAUUGAUGUCAGGAUAUCAGGGCCACAAUGCUAUGAGAAGGGACAUGAGGAUCACCCAUGUAAAAGUUCAUG [BmEX4 B.16] (Eterna round: R97, puzzle: Brourd's mod of Exclusion 4) | 180 nM | 69.8 nM | – | – | – | –
ACGAUGACCGAAAAGUGUAAACUGACAUGAGGAUCACCCAUGUAGGAUAUGGCUACGAAAAGUAGUCAGAAGGGCAUGUCAUCA [Omei Exc(NG) 3 Av9] (Eterna round: R96, puzzle: Exclusion NG 3) | 16 nM | 20.9 nM | 16.4 nM | – | – | –
UAGAUACAUGAGGAUCACCCAUGUGAGGAUAUGAGAAUUAGUUUAAAUGAAUUAAUUUUCAGAAGGCACGGAGG [JR_Ex1_Sub053] (Eterna round: R97, puzzle: Exclusion 1) | 180 nM | 123 nM | – | – | – | –
UUAAUGUGAGGAUAUCAGGUGUGAUAGAGUAAUGGUAAAUCUGAGAAGGCACAUGAGGAUCACCCAUGUUCUUC [Mat - Exclusion 4 - Mod of JL - D58] (puzzle: Exclusion 4) | – | – | – | 21.5 nM | – | –
CCCGUGUAAGGAUAUCGUUCACUUGGCAAAAGUCGAGUGGACGAGAAGGUACAUGAGGAUCACCCAUGUACGGG [-32.4, -32 kcal, A 28%] (Eterna round: R97, puzzle: Exclusion 4) | 406 nM | 282 nM | – | – | – | –
GAAAAUCGUAAGGAUAUCAGCGAAGAAGUACACUGAGAAGGUAUGACAUGAGGAUCACCCAUGUAGCCCGCUUA [Eternabot (L1) Solution 38] (Eterna round: R97, puzzle: Exclusion 6) | 18 nM | 13.2 nM | – | – | – | –
GUGCCGCGAGGAUAUACAGACGGGUCCAUAACGUGUCUCGGACUUGAGGAUCACCCAAGUAGAAGGCGUUUCAG [salish99_ex2_r4_623] (Eterna round: R97, puzzle: Exclusion 2) | 19.9 nM | 20.8 nM | – | – | – | –
CAUGAUCUUCGGAAAAUGUACAUGAGGAUCACCCAUGUGACGAGUUACAUGAAAAACAAGCUUUUUGCUCGUCUUAU [Sensor v3 - Turn-off variant 1 - 10] (puzzle: Sensor v3, turn-off variant 1) | – | – | – | 288 nM | 411 nM | 623 nM
ACAAGCUCUGUGGGUGGUGACAUGAGGAUCACCCAUGUUUUGCUCGUCUUGUCGGCCGGCCGGCGCCCGGCCGGCCG [-39.6, -68.5, A 12%] (Eterna round: R97, puzzle: Sensor, turn-off variant 1) | 498 nM | 727 nM | – | – | – | –
UGAUCUAGGCGAGGAUAUACAUGAGGAUCACCCAUGUAAACGUGACAUGAAAACAUGUCACGAAUGUAGAAGGCGCCUAGAUCU [JL ENG2 3.54] (Eterna round: R96, puzzle: Exclusion NG 2) | 21.7 nM | 13.3 nM | 13.2 nM | – | – | –
AAAUAACAAGCAAGAUCCUACAUGAGGAUCACCCAUGUGCUCGUCUUAUAAAGUACUAUCACGAAAGUGAUAGUACA [Sensor 3, v1 - 11] (puzzle: Sensor v3, turn-off variant 1) | – | – | – | 392 nM | 675 nM | 546 nM
CGAUGCUCGAGUCGACAUGAGGAUCACCCAUGUACAGUUAGUGAGGAUAUCGGAGACACAUAGUAUGAGAAGGCGCGAACGUGA [Ex NG3 #16] (Eterna round: R96, puzzle: Exclusion NG 3) | 76.7 nM | 40.3 nM | 41.4 nM | – | – | –
GCUUCGGCAGGAUAUACAUGAGGAUCACCCAUGUGCUUCGGCUUGAUCAAGUUGAAGUGUAGAAGGGUUGAAGU [-25.5, -22.5 kcal, 26% A, 3 bis, 3 bis] (Eterna round: R97, puzzle: Exclusion 3) | 36.8 nM | 78.7 nM | – | – | – | –
ACAUGAGGAUCACCCAUGUCCGUCUGGUCUGUCUCGGCUGUCGAGGAUAUAGCUCGGUAUCCGCGCUAGAAGGCGGGAGCCGGU [Aenatbe mod 92] (Eterna round: R96, puzzle: Exclusion NG 3) | 30.9 nM | 35 nM | 31.8 nM | – | – | –
AACUCUGAGAAGGAUAUUGUACGGGAAAUGGUACAAGAAGGUUUCACAUGAGGAUCACCCAUGUCGAAUAGUGA [EX6 #69] (Eterna round: R97, puzzle: Exclusion 6) | 34.7 nM | 22.9 nM | – | – | – | –
CAAUUAAUUAAUUAAUAAUACAUGAGGAUCACCCAUGUAGAUCCUACAUACAAGCUAAGUAGCUCGUCUUAUAAUUA [Stov1/2-A3] (Eterna round: R97, puzzle: Sensor, turn-off variant 1) | 417 nM | 625 nM | – | – | – | –
